This data set has as its system Bacillus subtilis DB104 (SP-AmyQ fusion secretion). Put plainly: AmyQ secretion efficiency, weighted average sort bin (1 = best secretion, 10 = worst) (bin number (weighted average, 1-10)); higher = lower secretion efficiency. In outline: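 The secretion score gives the average bin number weighted by read frequency and normalised to beads per bin, with low-abundance sequences excluded. Bins were 10 equally populated green/red fluorescence ratio fractions of occupied ~65 nL alginate beads, sorted by large-particle flow cytometry. The beads held fluorescein-starch and about 0.3 cells each of an amyE-integrated B. subtilis DB104 library fusing designed signal peptides to mature AmyQ, and they were grown about 13 h at room temperature and stained with nile red before sorting and Illumina sequencing.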

Values joined by “and” are separate entries in the source; they are usually repeats but may differ in a detail not shown here. Identical values can stand only once.

With MKKCLLFLTTIALILSLSTNAFAEDE, the AmyQ secretion efficiency was found to be 4.16.

MMKKLAAGLTASAIVGTTLVVTPAEAATI: the AmyQ secretion efficiency turned out to be 2.13.

As to MLRITINIITMFIAAAVISLTGTAEAAEK, the AmyQ secretion efficiency came to 3.59.

Consider MKLSVKIKKKRRKAAAAMTAKMYATAKGN, for which the AmyQ secretion efficiency worked out at 7.56.

The sequence MRGKSAVLLSLIMLIAGFLISFHFQM displayed an AmyQ secretion efficiency of 7.78.

Regarding MLMKVILAAFILVGSTLGAFSFSSDASAKHV, the AmyQ secretion efficiency came out at 2.

As for MRFTKVVGFLSVLGLAAVFPLTAQARKR, the AmyQ secretion efficiency turned out to be 7.26.

MKRTWNVCLTALLSVLLVAGSVTFHAEAKKP returned an AmyQ secretion efficiency of 2.82.

The sequence MKKIWIGMLAAAVLLLMVPKVSLAEDD yielded an AmyQ secretion efficiency of 4.09.

As for MHLIRAAGAVCLAVVLIAGCRFNEDQHQWEGENT, the AmyQ secretion efficiency is 5.73.

On to MRIFKKAVFVIMISFLIARRRKKRAHAAID, for which the AmyQ secretion efficiency turned out to be 8.88.

Consider MKRCKRLIVCSLAAILLLIPSVSFAADS, for which the AmyQ secretion efficiency came to 3.14.

For MKKIVSILFMFGLVMGFSQFQPSTVFARRK, the AmyQ secretion efficiency was 5.68.

As to MNKKYFVLIVCIIFTSALFPTRRKKKRVTAAQG, the AmyQ secretion efficiency was 8.37.

For the sequence “MKSRTIWTIILGALLVCSAASSCIAVAYTLTKSQAGASSS”, the AmyQ secretion efficiency stood at 6.64.

Sequence MKRKKKRLCVMMLLFSAIASFPVSAQAKDQ yielded an AmyQ secretion efficiency of 3.18.

As to MKNMSCKLVVSVTLFFTIGPLAHAQNS, the AmyQ secretion efficiency was 2.62.

For the sequence MKNMSCKGVVSVTLFFSFLTIGPLAHAQNS, the AmyQ secretion efficiency was 1.49.

Consider MKKRFSLIMMTGLLFGLTSPAFARKK, for which the AmyQ secretion efficiency was 7.01.

Turning to MGMKKKLSLGVASAALGLALVGGGWWAAFN, the AmyQ secretion efficiency is 7.18.

MFKIMSAFVGMVLLTIFCFSPQASAAYD: the AmyQ secretion efficiency is 3.33.

MFNRLFRVCFLAALIMAFTLPNSVYCQKP returned an AmyQ secretion efficiency of 4.33.

Consider MKSKWMSGLLLVAVGFSFTQVMWHAGET, for which the AmyQ secretion efficiency turned out to be 7.01.

MKVPKTMYQRRQAGLLLSLTATSVSAHYV yielded an AmyQ secretion efficiency of 6.61.

Sequence MTKKAWFLPLVCVLLISGWLAPAASASHQTT returned an AmyQ secretion efficiency of 2.01.

MKKGIIRFLLVSFVLFFALRRKKKRVQAAPA showed an AmyQ secretion efficiency of 5.81.

Sequence MKSKGSIMACLILFSFTITTFINTETLSAFSN displayed an AmyQ secretion efficiency of 6.34.

The sequence MKIRKILLSSALSFGMLISAVPALGAGT registered an AmyQ secretion efficiency of 3.88.

Consider MKLWMRKTLVVLFTIVTFGLVSPPAALMGDKP, for which the AmyQ secretion efficiency turned out to be 4.12.

The sequence MKQRRIMIFLTSFMLLAMTGQTALAKDV came in with an AmyQ secretion efficiency of 3.05.

The sequence MVKKWLIMFAVMLGVLMTFTYSASAVGV showed an AmyQ secretion efficiency of 1.93.

Regarding MRKTIFAFLTGLMMFFGTITAASASPD, the AmyQ secretion efficiency is 1.98.

Take MKLAKRVSALTPSTTLAITAKNKEL: the AmyQ secretion efficiency was 8.25.

Regarding MRSYIKVLTMCFLGLILFVPTALKDNS, the AmyQ secretion efficiency is 7.49.

Consider MRFTKVVGFLSVLGLAAVFPLTSQAEKA, for which the AmyQ secretion efficiency is 4.09.

Take MKKKKYVVLVLSIAGIGGFSVHAASS: the AmyQ secretion efficiency was 6.5.

Sequence MKSCKQLIVCSLAAILLLIPSVSFSTSTGASSFAADS had an AmyQ secretion efficiency of 6.07.

Turning to MKKRLIAPMLLSAASLAFFAMSGSAQFAAY, the AmyQ secretion efficiency is 6.43.

MKTLRTLCVLMILSGVIFFGLKIDVKDI: the AmyQ secretion efficiency turned out to be 6.52.

MKKLFIFSAILTLSIFAPNETFAQTA showed an AmyQ secretion efficiency of 2.72.

In turn, MKIRKILLSSALSFGMLRKRVPALAAGT came in with an AmyQ secretion efficiency of 6.53.

MKNMSCKLVVSVTLFFSFLTIGPLAHEQNS returned an AmyQ secretion efficiency of 5.71.

Consider MKKRLIAPMLLSAASLAFFAMSGSAQDAAY, for which the AmyQ secretion efficiency was 6.76.

Sequence MAIIIAIIAAVIVIAALITFTSNVRNASPG gave an AmyQ secretion efficiency of 7.45.

For MKLSVKIAGVLTVAAAAMTAKMYATTKGN, the AmyQ secretion efficiency came out at 5.53.

Take MRKYTVIASILLSFLSVLSGGHHESKAFPV: the AmyQ secretion efficiency is 3.25 and 4.96.

On to MKKWTNMSLLIIAVSLAIAIVLFMYTKGEAKAAGM, for which the AmyQ secretion efficiency was 2.33.

For MLKKVKRAAFILVGSTLGAFSFSSDASAKHV, the AmyQ secretion efficiency came out at 1.33.

As to MPYLKRVLLLLVTGLFMSLFAVTATASSQTG, the AmyQ secretion efficiency was 1.19.

Sequence MLMSIALTLCPAIVGSLLFFTAPASAHVS returned an AmyQ secretion efficiency of 4.17.

MKKVLMAFIICLSVLAAPPSGAKAESV yielded an AmyQ secretion efficiency of 2.14.

MKKRLIAPMLKRAASLAFFAMSGSAQAAAY gave an AmyQ secretion efficiency of 6.4.

In turn, MNKPTKLFSTLALAAGMTLIAAAAGGAGTIHAQQP showed an AmyQ secretion efficiency of 1.83.

As to MKKWMAGLFLAAAVLLCLMVPQQIQGDED, the AmyQ secretion efficiency was determined as 8.35.

Sequence MFKKLLLATSALTFSLSLVLPLDGHAKAQSV gave an AmyQ secretion efficiency of 1.96.

MKQFAITLSVLCALILLVPTLLVIPFFHNKEAGASV displayed an AmyQ secretion efficiency of 6.58.

In turn, MRKKHKTISLLIIFLLASAVLAKPIEAHTV showed an AmyQ secretion efficiency of 2.55.

In turn, MKKVLMAFIICLSLILSVLAAPPSGTKAESV registered an AmyQ secretion efficiency of 2.94.

Consider MKRLFISSAVLLSILLPSGQAHAQSA, for which the AmyQ secretion efficiency was 2.34.

The sequence MKKRKRRNFKRFIAAFLVLALMISLVPADMLAKST showed an AmyQ secretion efficiency of 1.76.

As for MMIKQNMSSCVICLSLLVFGTTAAHAEET, the AmyQ secretion efficiency was 2.9.

In turn, MKWMCSICCAAVLLAGGAAASSSVVAQAEAV had an AmyQ secretion efficiency of 3.55.

As for MKKWMITIAMLILAGIALFVFISPVKSHKT, the AmyQ secretion efficiency worked out at 6.53.

MKVLLSALLLLLFAFEPSRSGKKL: the AmyQ secretion efficiency was determined as 6.31.

The sequence MKKAFLVFLSVVLVTTVFLVKQQESVAQVKQL came in with an AmyQ secretion efficiency of 3.34.

For MKKTIMSFVAVAALSTTAFGAHRSAKEI, the AmyQ secretion efficiency was determined as 5.69.

Turning to MKLAKRVSALTPSTTLAITRKAKEL, the AmyQ secretion efficiency came to 7.25.

Turning to MIAYFGKCLLLVTIMFLGVLFTAVVVIAGMQQANHG, the AmyQ secretion efficiency amounted to 5.06.

Sequence MKRFSTLLLGILCSAAVFLIGAPSRALGAEV showed an AmyQ secretion efficiency of 2.96.

As for MLKKKWMVGLLAGCLAAGGFSYNSPPFFFGAAFATEN, the AmyQ secretion efficiency came out at 5.86.

Turning to MRNLTKTSLLLAGLCTAAQMVFVTHASAKKK, the AmyQ secretion efficiency is 3.84.

For MKRLLVSLRVWMVFLMNWVTPDRKTAAAAVY, the AmyQ secretion efficiency came out at 6.49.

Take MKKVLMAFIICLSLILSVLAAPPSGSAVSAKAESV: the AmyQ secretion efficiency came to 2.05.

In the case of MKWMCSICCAAVLLAGGAAQCEAV, the AmyQ secretion efficiency was 3.23.

MNLRKILLSSALSLGMLVSAAPCLATSS gave an AmyQ secretion efficiency of 2.03.

MKKGIIRFLLVSFVLFFALSTGITGVQFAPA came in with an AmyQ secretion efficiency of 7.18.

For the sequence MKKKIIRFLLVSFVLFFALSTGITGVQAAPA, the AmyQ secretion efficiency was determined as 2.57.

The sequence MKWMCSICCAAVLGAAQAEAV came in with an AmyQ secretion efficiency of 4.75.

MKSKWMSGLLLVAVGFSFTQVMNHAGET returned an AmyQ secretion efficiency of 5.68.

Turning to MRGKSAVLLSLIMLIAGFLINFSFQM, the AmyQ secretion efficiency was found to be 6.91.

As to MVKKWLIQFAVMLSVLSTFTYSASAVGV, the AmyQ secretion efficiency was 3.04 and 1.99.

Sequence MRKKRLLAGALTATVLFGTCAVDVPGIISPKTAEAASQ registered an AmyQ secretion efficiency of 1.23.

On to MKKQKKIAGVLTVAAAAMTAKMYATAKGN, for which the AmyQ secretion efficiency came out at 7.17.

Sequence MKKWIYVVLVLSIAGIGGFSVHKASS displayed an AmyQ secretion efficiency of 4.97.

Consider MKKSQYFIVFICFFVLFSSHPDEAAAADS, for which the AmyQ secretion efficiency came out at 4.15.

MKKRLIGFLVLVPALIMSGITLYEANKK yielded an AmyQ secretion efficiency of 5.95.

Sequence MKWMCSICCAAVLLAGGAVQAEAV had an AmyQ secretion efficiency of 2.89.

As to MLKKKWMVGLLAGCLAAGGFSYNSFATEN, the AmyQ secretion efficiency turned out to be 5.59.

In turn, MKKKQVMLALTAAAGLGLTALHSAPARKAAPL displayed an AmyQ secretion efficiency of 5.26.

Consider MKKKQVMLALTAAAGLGLTALHSAPATKAAPL, for which the AmyQ secretion efficiency came to 3.15.

MTKLKMLSMLTVMIASLFIFSSQILAVQY yielded an AmyQ secretion efficiency of 6.11.

For MKKKMLNLFLAAGLTASAIVGTTLVVTPAEAATI, the AmyQ secretion efficiency came to 4.26.

Consider MRKKTKNRLISSVLFMVVIMILLFSPGAAGASSK, for which the AmyQ secretion efficiency is 1.52.

Take MKKLVLCVSILAVILRKKALTQLS: the AmyQ secretion efficiency was found to be 7.41.

Take MGGVFPLILSAVLFLSCFFGARQTEASASKR: the AmyQ secretion efficiency is 4.03.

In turn, MFKKHSRSLLIIFLLASAVLAKPIEAHTV registered an AmyQ secretion efficiency of 4.1.

With MKLSVKIAGVLTVAAAAMTAKMYATKKGN, the AmyQ secretion efficiency was 8.52.

For the sequence MKVLLSALLLLLFAEASGKKL, the AmyQ secretion efficiency came out at 6.56.

For MKKAFILSAAAAVGLFTFDDDQQASAKEL, the AmyQ secretion efficiency was 2.77.

The sequence MPIKKKVMMCLAVTLVFGSMDEETLTNSGGFKE had an AmyQ secretion efficiency of 6.94.

For the sequence MRPVFPLKKRRVLFLSCFFGARQTEASASKR, the AmyQ secretion efficiency is 7.34.

The sequence MKKKLAAGLTASAIVGTTLVVTPAEPATI registered an AmyQ secretion efficiency of 6.62.

Regarding MPIKKKVMMCLAVTLVFGSMRKRRRKNSGGFKE, the AmyQ secretion efficiency was 8.69.

In turn, MMIKQCKKCLSLLVFGTTAAHAEET returned an AmyQ secretion efficiency of 7.22.

Sequence MKSKWMSGLLLVAVGFSFTQVMYHAGET came in with an AmyQ secretion efficiency of 7.02.

Take MKRTRIPMYLALGAALTIAPLSFASAEEN: the AmyQ secretion efficiency turned out to be 3.6.

MKKWIYVVLVLSIAGIGGFSVHAASR yielded an AmyQ secretion efficiency of 5.28.

With MKSKWMSGLLLVAVGFSFTQVMVHQGET, the AmyQ secretion efficiency amounted to 6.96.

On to MFNRLFRVCFLAALIMAFTLPNSVYHQKP, for which the AmyQ secretion efficiency came out at 6.83.

The record behind these values is the supplement of paper PMC9942255.
